Experimental data taken from patent US7186551B1, “3′-phosphoadenosine -5′-phosphosulfate synthetase 2 (PAPSS2) sequence variants” (Mayo Foundation for Medical Education and Research, priority 2001, dated 2007).

System: PAPSS2
Assay: PAPSS2 enzyme activity, coupled radiochemical assay (PAPS generation then SULT1E1-catalyzed sulfation of [3H]estradiol) with COS-1 expressed recombinant allozymes
Format: biochemical, human
Settings: His-tagged recombinant allozyme, loxP-modified p91023(b) vector, COS-1 cells, corrected for transfection efficiency
Excerpt: Variant alleles of the four non-synonymous PAPSS2 cSNPs observed during the resequencing experiments were created using the QuickChange Site-Directed Mutagenesis Kit (Stratagene, La Jolla, Calif.), with wild type PAPSS2 cDNA in pUni as template. The sequence of the pUni insert was confirmed by completely sequencing both strands before recombination with the loxP-modified p91023(b) acceptor vector. pUni donor vectors that contained wild type and variant PAPSS2 cDNAs, as well as empty pUni, then were combined with the loxP-modified p91023(b) acceptor vector to generate the final expression constructs. In all cases, the fusion junctions of resultant expression constructs were sequenced to confirm that the construct was a dimer consisting of only a single donor and a single acceptor vector. These expression constructs were used to transfect COS-1 cells using TransFast™ reagent (Promega) with a 1:1 charge ratio. pSV-β-galactosidase (Promega) was co-transfected with each construct as an internal control to correct for transfection efficiency. Transfected COS-1 cells were harvested after 48 hours and were homogenized with a Polytron homogenizer (Brinkmann Instruments, Westbury, N.Y.) in 25 mM potassium phosphate buffer, pH 7.8, containing 1 mM dithiothreitol (DTT) and 1 mM EDTA. The homogenates were centrifuged at 15,000 g for 15 minutes, and the resultant supernatant preparations were used to perform enzyme assays, substrate kinetic studies and Western blot analyses. In some cases, aliquots of these cytosol preparations were stored at −80° C. prior to assay.
PAPSS2 Enzyme Activity: PAPSS2 activity was measured with a coupled radiochemical assay. See Xu et al., 2001, supra. Briefly, PAPS is generated from ATP and Na2SO4 in a PAPSS2-catalyzed reaction. The generated PAPS is then used as a substrate for the SULT1E1-catalyzed sulfate conjugation of [2,4,6,7-^3H]estradiol, a radioactively labeled sulfate acceptor substrate. The cell homogenate preparations of recombinant PAPSS2 allozymes described above were used for the activity studies without any further purification. The protein concentration of each recombinant protein preparation was determined by the dye-binding method of Bradford with bovine serum albumin (BSA) as a standard.
PAPS synthesis was catalyzed by recombinant wild-type PAPSS2 or PAPSS2 allozymes (present in the cell homogenate preparations described above) in the presence of 1 mM ATP, 16 mM Na2SO4, 1 mM MgCl2, and 2 mM DTT in 60 mM glycine-NaOH buffer, pH 8.6. Blank samples included the same quantity of COS-1 cytosol protein from cells that had been transfected with empty expression vector to make it possible to correct for endogenous activity. Reaction mixtures were incubated at 37° C. for 20 minutes, and then terminated by heating at 100° C. for 1 minute. An aliquot from this PAPS-generating reaction was then added to a second, coupled reaction containing recombinant human SULT1E1 isolated from COS-1 cells transfected with a SULT1E1 expression construct (see Aksoy et al., Biochem. Biophys. Res. Commun., 200:1621–1629 (1994)). The coupled reaction also included 27 nM [2,4,6,7-^3H]estradiol, 8 mM DTT and 1.25 mM MgCl2 in 10 mM potassium phosphate buffer, pH 6.5. The second, SULT1E1-catalyzed reactions were incubated at 37° C. for 20 minutes, and then terminated by the addition of KOH, followed by organic solvent extraction performed with chloroform. Radioactivity of the sulfate conjugated [2,4,6,7-^3H]estradiol in the aqueous phase after organic solvent extraction was then measured in a liquid scintillation counter. PAPSS activities of recombinant PAPSS2 allozymes were compared after correction for transfection efficiency by measuring the activity of cotransfected P-galactosidase. β-Galactosidase activity in the COS-1 cell preparations was measured with the β-Galactosidase Assay System (Promega) as described by the manufacturer. […]

% WT activity: 100%
B1: wild type: reference human PAPSS2 polypeptide (SEQ ID NO:9, GenBank AF091242), recombinantly expressed in COS-1 cells (protein, listed as Homo sapiens)
chain: MSGIKKQKTENQQKSTNVVYQAHHVSRNKRGQVVGTRGGFRGCTVWLTGLSGAGKTTISFALEEYLVSHAIPCYSLDGDNVRHGLNRNLGFSPGDREENIRRIAEVAKLFADAGLVCITSFISPFAKDRENARKIHESAGLPFFEIFVDAPLNICESRDVKGLYKRARAGEIKGFTGIDSDYEKPETPERVLKTNLSTVSDCVHQVVELLQEQNIVPYTIIKDIHELFVPENKLDHVRAEAETLPSLSITKLDLQWVQVLSEGWATPLKGFMREKEYLQVMHFDTLLDDGVINMSIPIVLPVSAEDKTRLEGCSKFVLAHGGRRVAILRDAEFYEHRKEERCSRVWGTTCTKHPHIKMVMESGDWLVGGDLQVLEKIRWNDGLDQYRLTPLELKQKCKEMNADAVFAFQLRNPVHNGHALLMQDTCRRLLERGYKHPVLLLHPLGGWTKDDDVPLDWRMKQHAAVLEEGVLDPKSTIVAIFPSPMLYAGPTEVQWHCRSRMIAGANFYIVGRDPAGMPHPETKKDLYEPTHGGKVLSMAPGLTSVEIIPFRVAAYNKAKKAMDFYDPARHNEFDFISGTRMRKLAREGENPPDGFMAPKAWKVLTDYYRSLEKN
